Results on one substance are retold here after US20260209301A1, “Galanin-2 Receptor Agonists” (LIFEARC, priority 2022, published 2026).

In this assay the target is T1, GALR2 (Homo sapiens, UniProt O43603).
T1 sequence (O43603 1-387): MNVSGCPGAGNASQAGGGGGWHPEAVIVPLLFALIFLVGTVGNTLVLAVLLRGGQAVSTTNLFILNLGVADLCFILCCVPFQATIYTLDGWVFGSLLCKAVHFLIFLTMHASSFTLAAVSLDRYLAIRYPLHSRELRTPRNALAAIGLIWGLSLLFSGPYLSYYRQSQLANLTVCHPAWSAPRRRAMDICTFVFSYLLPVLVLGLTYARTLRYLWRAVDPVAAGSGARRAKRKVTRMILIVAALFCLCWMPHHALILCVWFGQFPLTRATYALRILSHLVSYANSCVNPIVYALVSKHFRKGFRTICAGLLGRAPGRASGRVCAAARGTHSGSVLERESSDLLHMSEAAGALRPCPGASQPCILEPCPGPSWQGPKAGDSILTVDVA
Kind of assay: Radioligand binding, [125I]galanin displacement on CHO GalR2 membranes. The arrangement: expressed in transfected cells; host or cells: CHO (Flp-In, pcDNA5/FRT). Particulars: recombinant GalR2 membranes, FIG. 3. On the procedure: Cell membrane homogenates (4 μg protein—from CHO cells expressing the GalR2 receptor) were incubated for 120 minutes at 22° C. with 0.05 nM [^125I] galanin in the absence or presence of test compound in a buffer containing 25 mM Tris-HCl (pH 7.4, 10 mM MgCl2 and 0.5% BSA. Non-specific binding was determined in the presence of 1 μM porcine galanin. Following incubation, samples were filtered rapidly under vacuum through glass fiber filters (GF/B, Packard) pre-soaked with 0.3% PEI and rinsed several times with ice cold 50 mM Tris-HCl using a 96 sample cell harvester (Unifilter, Packard). The filters are dried then counted for radioactivity in a scintillation counter (Topcount, Packard) using a scintillation cocktail (Microscint 0), Packard). The results are expressed as a percent inhibition of the control radioligand specific binding. The standard reference compound is porcine galanin which is tested in each experiment at several concentrations to obtain a competition curve from which its IC50 is generated.
Briefly, cell overexpressing recombinant GalR2 were used to for crude membrane preparations. Competition style binding assays were then used to monitor displacement of [125I]-Galanin using a range of concentrations of Gal-FC fusion. After a period of incubation data were expressed relative the maximum specific Galanin bound.

For the substance “Gal2-30FC: galanin 2-30, AEAAAKEAAAKA linker, human IgG1 FC; SEQ ID NO: 28”, the “pIC50, displacement of [125I]-Galanin binding” value is reported as 7.55.
